Values joined by “and” are separate entries in the source; they are usually repeats but may differ in a detail not shown here. Equal values may be shown once.
B1: Lysozyme C, P61626 (parent)
chain: MKALIVLGLVLLSVTVQGKVFERCELARTLKRLGMDGYRGISLANWMCLAKWESGYNTRATNYNAGDRSTDYGIFQINSRYWCNDGKTPGAVNACHLSCSALLQDNIADAVACAKRVVRDPQGIRAWVAWRNRCQNRDVRQYVQGCGV

Variants of: B1
Conditions: Homo sapiens; pH 2.5; Thermal; DSC; glycine 0.05 M; reversible: yes; structure 1LZ1; whole UniProt chain shown

| Variant | Tm [°C] | unfolding enthalpy (calorimetric) [kcal/mol] | unfolding enthalpy (van 't Hoff) [kcal/mol] |
| --- | --- | --- | --- |
| MKALIVLGLVLLSVTVQGKVFERCELARTLKRLGMDGYRGISLANWMCLAKWESGYNTRATNYNAGDRSTDYGIFQINSRYWCNDGKTPGAVNACHLSCSALLQDNIADAAACAKRVVRDPQGIRAWVAWRNRCQNRDVRQYVQGCGV [V111A] | 41.2 | 64.1 | 71.1 |
| MKALIVLGLVLLSVTVQGKVFERCELARTLKRLGMDGYRGISLANWMCLAKWESGYNTRATNYNAGDRSTDYGIFQINSRYWCNDGKTPGAVNACHLSCSALLQDNIADAVACAKRVVRDPQGIRAWVAWRNRCQNRDVRQYVQGCGA [V148A] | 40.4 | 61 | 67.7 |

Same assay, conditions: Homo sapiens; pH 2.7; 49.2 °C; Thermal; DSC; glycine 0.05 M; reversible: yes; structure 1LZ1; whole UniProt chain shown

| Variant | ddG of mutation (higher = less stable) [kcal/mol] | heat capacity change of unfolding [kcal/mol/K] |
| --- | --- | --- |
| MKALIVLGLVLLSVTVQGKVFERCELARTLKRLGMDGYRGISLANWMCLAKWESGYNTRATNYNAGDRSTDYGIFQINSRYWCNDGKTPGAVNACHLSCSALLQDNIADAAACAKRVVRDPQGIRAWVAWRNRCQNRDVRQYVQGCGV [V111A] | 1 | 1.53 |
| MKALIVLGLVLLSVTVQGKVFERCELARTLKRLGMDGYRGISLANWMCLAKWESGYNTRATNYNAGDRSTDYGIFQINSRYWCNDGKTPGAVNACHLSCSALLQDNVADAVACAKRVVRDPQGIRAWVAWRNRCQNRDVRQYVQGCGV [I107V] | 0.35 | 1.84 |
| MKALIVLGLVLLSVTVQGKVFERCELARTLKRLGMDGYRGISLANWMCLAKWESGYNTRATNYNAGDRSTDYGIFQINSRYWCNDGKTPGAVNACHLSCSALLQDNIADAVACAKRVVRDPQGIRAWVAWRNRCQNRDVRQYVQGCGA [V148A] | 1.12 | 1.87 |

Same assay, conditions: Homo sapiens; pH 2.7; Thermal; DSC; glycine 0.05 M; reversible: yes; structure 1LZ1; whole UniProt chain shown

| Variant | Tm | change of melting temperature, mutant - wild type (higher = more stable) | heat capacity change of unfolding [kcal/mol/K] | unfolding enthalpy (calorimetric) | unfolding enthalpy (van 't Hoff) [kcal/mol] |
| --- | --- | --- | --- | --- | --- |
| MKALIVLGLVLLSVTVQGKVFERCELARTLKRLGMDGYRGISLANWMCLAKWESGYNTRATNYNAGDRSTDYGIFQINSRYWCNDGKTPGAVNACHLSCSALLQDNIADAAACAKRVVRDPQGIRAWVAWRNRCQNRDVRQYVQGCGV [V111A] | 44.8 °C and 45.2 °C | -4.4 °C and -4 °C | 1.53 | 76.3 kcal/mol and 71.1 kcal/mol | 77.3 |
| MKALIVLGLVLLSVTVQGKVFERCELARTLKRLGMDGYRGISLANWMCLAKWESGYNTRATNYNAGDRSTDYGIFQINSRYWCNDGKTPGAVNACHLSCSALLQDNVADAVACAKRVVRDPQGIRAWVAWRNRCQNRDVRQYVQGCGV [I107V] | 46.5 °C | -2.7 °C | 1.84 | 78.5 kcal/mol |  |
| MKALIVLGLVLLSVTVQGKVFERCELARTLKRLGMDGYRGISLANWMCLAKWESGYNTRATNYNAGDRSTDYGIFQINSRYWCNDGKTPGAVNACHLSCSALLQDNIADAVACAKRVVRDPQGIRAWVAWRNRCQNRDVRQYVQGCGA [V148A] | 44.4 °C | -4.8 °C | 1.87 | 78.2 kcal/mol |  |

Same assay, conditions: Homo sapiens; pH 3.02; Thermal; DSC; glycine 0.05 M; reversible: yes; structure 1LZ1; whole UniProt chain shown

| Variant | Tm [°C] | unfolding enthalpy (calorimetric) [kcal/mol] | unfolding enthalpy (van 't Hoff) [kcal/mol] |
| --- | --- | --- | --- |
| MKALIVLGLVLLSVTVQGKVFERCELARTLKRLGMDGYRGISLANWMCLAKWESGYNTRATNYNAGDRSTDYGIFQINSRYWCNDGKTPGAVNACHLSCSALLQDNIADAAACAKRVVRDPQGIRAWVAWRNRCQNRDVRQYVQGCGV [V111A] | 50.1 | 77.5 | 83 |

Same assay, conditions: Homo sapiens; pH 3.16; Thermal; DSC; glycine 0.05 M; reversible: yes; structure 1LZ1; whole UniProt chain shown

| Variant | Tm [°C] | unfolding enthalpy (calorimetric) [kcal/mol] | unfolding enthalpy (van 't Hoff) [kcal/mol] |
| --- | --- | --- | --- |
| MKALIVLGLVLLSVTVQGKVFERCELARTLKRLGMDGYRGISLANWMCLAKWESGYNTRATNYNAGDRSTDYGIFQINSRYWCNDGKTPGAVNACHLSCSALLQDNIADAAACAKRVVRDPQGIRAWVAWRNRCQNRDVRQYVQGCGV [V111A] | 52.5 | 81.8 | 86.4 |

Same assay, conditions: Homo sapiens; pH 2.49; Thermal; DSC; glycine 0.05 M; reversible: yes; structure 1LZ1; whole UniProt chain shown

| Variant | Tm [°C] | unfolding enthalpy (calorimetric) [kcal/mol] | unfolding enthalpy (van 't Hoff) [kcal/mol] |
| --- | --- | --- | --- |
| MKALIVLGLVLLSVTVQGKVFERCELARTLKRLGMDGYRGISLANWMCLAKWESGYNTRATNYNAGDRSTDYGIFQINSRYWCNDGKTPGAVNACHLSCSALLQDNVADAVACAKRVVRDPQGIRAWVAWRNRCQNRDVRQYVQGCGV [I107V] | 42.5 | 66 | 72 |

Same assay, conditions: Homo sapiens; pH 2.66; Thermal; DSC; glycine 0.05 M; reversible: yes; structure 1LZ1; whole UniProt chain shown

| Variant | Tm [°C] | unfolding enthalpy (calorimetric) [kcal/mol] | unfolding enthalpy (van 't Hoff) [kcal/mol] |
| --- | --- | --- | --- |
| MKALIVLGLVLLSVTVQGKVFERCELARTLKRLGMDGYRGISLANWMCLAKWESGYNTRATNYNAGDRSTDYGIFQINSRYWCNDGKTPGAVNACHLSCSALLQDNVADAVACAKRVVRDPQGIRAWVAWRNRCQNRDVRQYVQGCGV [I107V] | 45.5 | 71.8 | 76.6 |

Same assay, conditions: Homo sapiens; pH 2.78; Thermal; DSC; glycine 0.05 M; reversible: yes; structure 1LZ1; whole UniProt chain shown

| Variant | Tm [°C] | unfolding enthalpy (calorimetric) [kcal/mol] | unfolding enthalpy (van 't Hoff) [kcal/mol] |
| --- | --- | --- | --- |
| MKALIVLGLVLLSVTVQGKVFERCELARTLKRLGMDGYRGISLANWMCLAKWESGYNTRATNYNAGDRSTDYGIFQINSRYWCNDGKTPGAVNACHLSCSALLQDNVADAVACAKRVVRDPQGIRAWVAWRNRCQNRDVRQYVQGCGV [I107V] | 48.4 | 77.3 | 82.3 |

Same assay, conditions: Homo sapiens; pH 3.1; Thermal; DSC; glycine 0.05 M; reversible: yes; structure 1LZ1; whole UniProt chain shown

| Variant | Tm [°C] | unfolding enthalpy (calorimetric) [kcal/mol] | unfolding enthalpy (van 't Hoff) [kcal/mol] |
| --- | --- | --- | --- |
| MKALIVLGLVLLSVTVQGKVFERCELARTLKRLGMDGYRGISLANWMCLAKWESGYNTRATNYNAGDRSTDYGIFQINSRYWCNDGKTPGAVNACHLSCSALLQDNVADAVACAKRVVRDPQGIRAWVAWRNRCQNRDVRQYVQGCGV [I107V] | 53.8 | 87.3 | 88.3 |

Same assay, conditions: Homo sapiens; pH 2.69; Thermal; DSC; glycine 0.05 M; reversible: yes; structure 1LZ1; whole UniProt chain shown

| Variant | Tm [°C] | unfolding enthalpy (calorimetric) [kcal/mol] | unfolding enthalpy (van 't Hoff) [kcal/mol] |
| --- | --- | --- | --- |
| MKALIVLGLVLLSVTVQGKVFERCELARTLKRLGMDGYRGISLANWMCLAKWESGYNTRATNYNAGDRSTDYGIFQINSRYWCNDGKTPGAVNACHLSCSALLQDNIADAVACAKRVVRDPQGIRAWVAWRNRCQNRDVRQYVQGCGA [V148A] | 43.8 | 69.9 | 73 |

Same assay, conditions: Homo sapiens; pH 2.82; Thermal; DSC; glycine 0.05 M; reversible: yes; structure 1LZ1; whole UniProt chain shown

| Variant | Tm [°C] | unfolding enthalpy (calorimetric) [kcal/mol] | unfolding enthalpy (van 't Hoff) [kcal/mol] |
| --- | --- | --- | --- |
| MKALIVLGLVLLSVTVQGKVFERCELARTLKRLGMDGYRGISLANWMCLAKWESGYNTRATNYNAGDRSTDYGIFQINSRYWCNDGKTPGAVNACHLSCSALLQDNIADAVACAKRVVRDPQGIRAWVAWRNRCQNRDVRQYVQGCGA [V148A] | 47 | 73 | 79.2 |

Same assay, conditions: Homo sapiens; pH 2.97; Thermal; DSC; glycine 0.05 M; reversible: yes; structure 1LZ1; whole UniProt chain shown

| Variant | Tm [°C] | unfolding enthalpy (calorimetric) [kcal/mol] | unfolding enthalpy (van 't Hoff) [kcal/mol] |
| --- | --- | --- | --- |
| MKALIVLGLVLLSVTVQGKVFERCELARTLKRLGMDGYRGISLANWMCLAKWESGYNTRATNYNAGDRSTDYGIFQINSRYWCNDGKTPGAVNACHLSCSALLQDNIADAVACAKRVVRDPQGIRAWVAWRNRCQNRDVRQYVQGCGA [V148A] | 49.9 | 80.1 | 86.1 |

Same assay, conditions: Homo sapiens; pH 3.09; Thermal; DSC; glycine 0.05 M; reversible: yes; structure 1LZ1; whole UniProt chain shown

| Variant | Tm [°C] | unfolding enthalpy (calorimetric) [kcal/mol] | unfolding enthalpy (van 't Hoff) [kcal/mol] |
| --- | --- | --- | --- |
| MKALIVLGLVLLSVTVQGKVFERCELARTLKRLGMDGYRGISLANWMCLAKWESGYNTRATNYNAGDRSTDYGIFQINSRYWCNDGKTPGAVNACHLSCSALLQDNIADAVACAKRVVRDPQGIRAWVAWRNRCQNRDVRQYVQGCGA [V148A] | 52.5 | 84.2 | 90.2 |

Source: FireProtDB (doi:10.1006/jmbi.1998.1906)
